Patent US20240018256A1 (JUNO THERAPEUTICS, published 2024)
Substitutions are numbered along the chain they refer to. In names and notes the source's numbering stands.

Assays:
human CD19 [1] = biological target: T1, human CD19 (human, UniProt P15391 20-556); assay: flow cytometry, scFv titrated on CD19-expressing K562 cells (FIG. 3A)
T1 sequence: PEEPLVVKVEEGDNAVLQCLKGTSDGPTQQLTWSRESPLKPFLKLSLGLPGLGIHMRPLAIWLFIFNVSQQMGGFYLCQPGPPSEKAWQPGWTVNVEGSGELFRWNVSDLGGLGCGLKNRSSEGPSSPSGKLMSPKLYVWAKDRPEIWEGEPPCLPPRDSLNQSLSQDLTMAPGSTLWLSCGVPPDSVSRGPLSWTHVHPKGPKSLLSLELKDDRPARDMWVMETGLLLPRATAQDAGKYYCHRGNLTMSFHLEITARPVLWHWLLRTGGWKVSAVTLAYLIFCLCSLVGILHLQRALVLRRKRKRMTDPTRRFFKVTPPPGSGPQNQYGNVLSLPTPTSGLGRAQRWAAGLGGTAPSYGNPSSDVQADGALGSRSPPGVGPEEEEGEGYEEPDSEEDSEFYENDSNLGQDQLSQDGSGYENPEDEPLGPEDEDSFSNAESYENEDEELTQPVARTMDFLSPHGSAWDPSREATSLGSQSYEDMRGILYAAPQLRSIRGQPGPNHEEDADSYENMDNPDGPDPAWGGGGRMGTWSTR

human CD19 [2] = biological target: T1, human CD19; assay: flow cytometry competition for binding with FMC63, summary (n = 3)
Procedure: (§1) Competition binding assays were performed to assess competition of various antibodies for binding to CD19-expressing cells.

human CD19 [3] = biological target: T1, human CD19; assay: flow cytometry competition with labeled FMC63 IgG on CD19-expressing cells (FIG. 5B)
Procedure: as §1

human CD19 [4] = biological target: T1, human CD19; assay: flow cytometry, scFv titrated on CD19-expressing K562 cells (FIG. 4, another plate)
human CD19 [5] = biological target: T1, human CD19; assay: flow cytometry on CD19-expressing cells, summary (n = 7)
human CD19 [6] = biological target: T1, human CD19; assay: flow cytometry, scFv titrated on CD19-expressing K562 cells (FIG. 3B)
human CD19 [7] = biological target: T1, human CD19; assay: flow cytometry, scFv titrated on CD19-expressing K562 cells (FIG. 4, one plate)
human CD19 [8] = biological target: T1, human CD19; assay: flow cytometry on CD19-expressing cells (n = 7)
Description: (§2) Various clones were titrated and their binding affinity (EC50) to various CD19-expressing cells assessed by flow cytometry.

human CD19 [9] = biological target: T1, human CD19; assay: flow cytometry on CD19-expressing cells, summary (n = 5)
human CD19 [10] = biological target: T1, human CD19; assay: flow cytometry competition for binding with FMC63 (n = 3)
human CD19 [11] = biological target: T1, human CD19; assay: flow cytometry competition for binding with FMC63, summary (n = 1)
human CD19 [12] = biological target: T1, human CD19; assay: flow cytometry on Ramos cells; probe concentration said to be about its EC50
human CD19 [13] = biological target: T1, human CD19; assay: flow cytometry, HIS-tagged scFv bacterial supernatant on CD19-transfected HEK293 cells (FIG. 8C)
Description: A third scFv library was generated by shuffling the VH sequences from the selection in (a) with the VL sequences resulting from the selection in (b). […] Binding by the selected scFv clones to CD19-expressing cells was confirmed by flow cytometry using bacterially-produced supernatant. The selected scFv pools were cloned into E. coli expression vectors and produced as HIS-tagged scFvs. Binding of individual clones to CD19-transfected HEK293 cells was detected with anti-HIS-Alexa647 conjugate by flow cytometry.

human CD19 [14] = biological target: T1, human CD19; assay: flow cytometry competition for binding with FMC63, summary (n = 2)
human CD19 [15] = biological target: T1, human CD19; assay: flow cytometry competition for binding with FMC63 (n = 2)
human CD19 [16] = biological target: T1, human CD19; assay: flow cytometry on CD19-expressing cells, summary
human CD19 [17] = biological target: T1, human CD19; assay: flow cytometry on CD19-expressing cells (n = 5)
human CD19 [18] = biological target: T1, human CD19; assay: flow cytometry, scFv titrated on CD19-expressing K562 cells (FIG. 3C)
human CD19 [19] = biological target: T1, human CD19; assay: flow cytometry competition for binding with FMC63 (n = 1)
human CD19 [20] = biological target: T1, human CD19; assay: flow cytometry on CD19-expressing cells, summary (n = 1)
human CD19 [21] = biological target: T1, human CD19; assay: flow cytometry on CD19-expressing cells (n = 1)
Description: as §2

human CD19 [22] = biological target: T1, human CD19; assay: flow cytometry competition for binding with FMC63
human CD19 [23] = biological target: T1, human CD19; assay: flow cytometry on CD19-expressing cells (n = 4)
human CD19 [24] = biological target: T1, human CD19; assay: flow cytometry competition for binding with FMC63 (n = 6)
human CD19 [25] = biological target: T1, human CD19; assay: flow cytometry, in vitro-translated FLAG-tagged scFv on CD19-expressing vs mock transfected K562 cells (FIG. 8D)

B1: Clone 18 scFv (scFv)
scFv: EVQLVESGGGLVQPGRSLRLSCAASGFTFDDYAMHWVRQAPGKGLEWVSGISWNSGRIGYADSVKGRFTISRDNAKNSLFLQMNSLRAEDTAVYYCARDQGYHYYDSAEHAFDIWGQGTVVTVSSGGGGSGGGGSGGGGSQSALTQPRSVSGFPGQSVTISCTGTTSDDVSWYQQHPGKAPQLMLYDVSKRPSGVPHRFSGSRSGRAASLIISGLQTEDEADYFCCSYAGRYNSVLFGGGTKLTVL
notes: Human scFv, VH-(G4S)3-VL
EC50 (human CD19 [1]): 3.79 nM | IC50 (human CD19 [2]): 20.1 nM | IC50 (human CD19 [3]): 24 nM | EC50 (human CD19 [4]): 3.11 nM | EC50 (human CD19 [5]): 4.1 nM | EC50 (human CD19 [6]): 7.1 nM | EC50 (human CD19 [7]): 4.79 nM

B2: Clone 18B scFv (scFv)
scFv: B1 scFv with C226S
notes: Clone 18 with cysteine to serine at Kabat position 89 of VL; also called germline variant of clone 18
EC50 (human CD19 [8]): 4.9 nM | EC50 (human CD19 [9]): 5.4 nM | EC50 (human CD19 [6]): 9.3 nM | IC50 (human CD19 [10]): 32.9 nM | IC50 (human CD19 [11]): 28 nM

B3: SJ25C1 IgG1 (antibody, V domains shown)
VH: EVKLQQSGAELVRPGSSVKISCKASGYAFSSYWMNWVKQRPGQGLEWIGQIYPGDGDTNYNGKFKGQATLTADKSSSTAYMQLSGLTSEDSAVYFCARKTISSVVDFYFDYWGQGTTVTVSS
VL: DIELTQSPKFMSTSVGDRVSVTCKASQNVGTNVAWYQQKPGQSPKPLIYSATYRNSGVPDRFTGSGSGTDFTLTITNVQSKDLADYFCQQYNRYPYTSGGGTKLEI
notes: Murine IgG1, FITC-labeled in the assay; also called FITC-labeled SJ25C1
EC50 (human CD19 [12]): ~0.5 nM

B4: Clone 448 scFv (scFv)
scFv: QVQLVESGGGLVQPGRSLRLSCAASGFTFDDYAMHWVRQAPGKGLEWVSGISWNSGRIGYADSVKGRFTISRDNAKNSLFLQMNSLRAEDTAVYYCARDQGYHYYDSAEHAFDIWGQGTVVTVSSGGGGSGGGGSGGGGSQSALTQPASVSGSPGQSITISCTGTSSDLGGYNYVSWYQHRPGKAPKLIIYDVTVRPSGVSDRFSGSKSGNTASLTISGLQAEDEADYYCGSYTSSSTLLWVFGGGTKLDIK
notes: HIS- or FLAG-tagged
binding result (human CD19 [13]): binds

B5: Clone 17 scFv (scFv)
scFv: EVQLVESGGGLVQPGRSLRLSCAASGFTFDDYAMHWVRQAPGKGLEWVSGISWNSGRIGYADSVKGRFTISRDNAKNSLFLQMNSLRAEDTAVYYCARDQGYHYYDSAEHAFDIWGQGTMVTVSSGGGGSGGGGSGGGGSQSALTQPASVSGSPGQSITIFCTGTSSDVGGYNYVSWYQQLPGTAPKLLIYSNNQRPSGVPDRFSGSKSGTSASLAISGLRSEDEADYYCAAWDDSLSVVFGGGTKLTVL
notes: Human scFv, VH-(G4S)3-VL
EC50 (human CD19 [1]): 14.9 nM | IC50 (human CD19 [14]): 35.4 nM | IC50 (human CD19 [15]): 35.4 nM | EC50 (human CD19 [16]): 11.7 nM | EC50 (human CD19 [17]): 11.6 nM | EC50 (human CD19 [7]): 8.32 nM

B6: Clone 76 scFv (scFv)
scFv: EVQLVESGGGLVQPGRSLRLSCAASGFTFDDYAMHWVRQAPGKGLEWVSGISWNSGRIGYADSVKGRFTISRDNAKNSLFLQMNSLRAEDTAVYYCARDQGYHYYDSAEHAFDIWGQGTVVTVSSGGGGSGGGGSGGGGSQSVLTQPPSVSAAPGQEVTISCSGSSSNIGNNYVSWYQQLPGTAPKLLIYDNDKRPSGIPDRFSGSKSGTSATLGITGLQTGDEADYYCGTWDGNLSAVFGGGTKVTVL
notes: Human scFv, VH-(G4S)3-VL
IC50 (human CD19 [14]): 18.2 nM | IC50 (human CD19 [15]): 18.2 nM | EC50 (human CD19 [18]): 8.8 nM | EC50 (human CD19 [16]): 8.04 nM | EC50 (human CD19 [6]): 7.9 nM | EC50 (human CD19 [17]): 7 nM

B7: Clone 5 scFv (scFv)
scFv: EVQLVESGGGLVQPGRSLRLSCAASGFTFDDYAMHWVRQAPGKGLEWVSGISWNSGRIGYADSVKGRFTISRDNAKNSLFLQMNSLRAEDTAVYYCARDQGYHYYDSAEHAFDIWGQGTMVTVSSGGGGSGGGGSGGGGSSYELTQDPAVSVALGQTVRITCQGDSLRSYYASWYQQKPGQAPVLVIYDKNNRPSGIPDRFSGSSSGNTASLTITGAQAEDEADYYCNSRDSSGNNWVFGGGTKLTVL
notes: Human scFv, VH-(G4S)3-VL
IC50 (human CD19 [19]): 50 nM | EC50 (human CD19 [20]): 15.8 nM | EC50 (human CD19 [21]): 15.8 nM | EC50 (human CD19 [7]): 15.8 nM | IC50 (human CD19 [11]): 50 nM

B8: Clone 835 scFv (scFv)
scFv: EVQLVESGGGLVQPGRSLRLSCAASGFTFDDYAMHWVRLAPGKGLEWVSGISWNSGRIGYADSVKGRFTISRDNAKNSLFLQMNSLRAKDTAVYYCARDQGYHYYDSAEHAFDIWGQGTMVTVSSGGGGSGGGGSGGGGSQSVLTQPRSVSGSPGQSVTISCTGPISGVGDYTSVSWYQHYPGKTPKLIIYDVTQRPSGVPNRFSGSKSGNTASLTISGLQADDEADYYCCSYEAPTHTYVFGTGTKLTVL
notes: Human scFv
IC50 (human CD19 [22]): > 200 nM | EC50 (human CD19 [21]): 71.8 nM

B9: Clone 440 scFv (scFv)
scFv: QVQLVESGGGLVQPGRSLRLSCAASGFTFDDYAMHWVRQAPGKGLEWVSGISWNSGRIGYADSVKGRFTISRDNAKNSLFLQMNSLRAEDTAVYYCARDQGYHYYDSAEHAFDIWGQGTVVTVSSGGGGSGGGGSGGGGSQSALTQPASVSGSPGHSITISCTGTRSDVGGFDYVSWYQHNPGKAPKLIIYDVTKRPSGVSNRFSGAKSGITASLTISGLQAEDEADYYCTSYRPGPTFVFGTGTKLDIK
notes: HIS- or FLAG-tagged
binding result (human CD19 [13]): binds

B10: Clone 488 scFv (scFv)
scFv: EVQLVQSGGGLVQPGRSLRLSCAASGFTFDDYAMHWVRQAPGKGLEWVSGISWNSGSIGYADSVKGRFTISRDNAKNSLYLQMNSLRAEDTAVYYCARDQGYHYYDSAEHAFDIWGQGTVVTVSSGGGGSGGGGSGGGGSEIVLTQSPATLSLSPGETATLSCRASQSINHYLAWYQQKPGQAPRLLIYDASNRATGIPARFSGSGSGTDFTLTISSLEPEDFATYYCQQSYSHPRMYTFGQGTKLDIK
notes: Human scFv
EC50 (human CD19 [23]): 2.9 nM | IC50 (human CD19 [24]): 6.1 nM

B11: Clone 213 scFv (scFv)
scFv: B10 scFv with E1Q, L11V, D247E
binding result (human CD19 [25]): binds
